Experimental data reported in patent publication US20240317847A1 (Bayer, published 2024).
Positions count from the first letter of the chain named. Values joined by “and” are separate entries in the source; they are usually repeats but may differ in a detail not shown here. Equal values may be shown once. Blank lines part the entries; values can stand above or below the binder they belong to.

Tests used:
Experiment in all cases: cell-based or functional assay
human IL-11 [1] = biological target: T1, human IL-11 (human, UniProt P20809 22-199)
T1 sequence: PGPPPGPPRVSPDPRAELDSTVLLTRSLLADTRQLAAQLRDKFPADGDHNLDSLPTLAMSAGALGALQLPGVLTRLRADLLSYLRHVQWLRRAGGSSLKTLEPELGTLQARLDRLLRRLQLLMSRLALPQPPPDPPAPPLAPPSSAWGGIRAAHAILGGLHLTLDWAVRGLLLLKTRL

murine IL-11 [2] = biological target: T2, murine IL-11 (mouse, UniProt P47873 22-199)
T2 sequence: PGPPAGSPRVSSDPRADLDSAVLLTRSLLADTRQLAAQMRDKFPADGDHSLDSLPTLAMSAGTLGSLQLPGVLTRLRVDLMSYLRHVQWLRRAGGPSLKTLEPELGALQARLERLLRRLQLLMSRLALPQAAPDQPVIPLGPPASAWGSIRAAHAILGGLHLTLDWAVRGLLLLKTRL

human IL-11 [3] = biological target: T3, human IL-11 (human, UniProt P20809 22-199); remark: listed apart in the source
T3 sequence: T1 sequence

murine IL-11 [4] = biological target: T4, murine IL-11 (mouse, UniProt P47873 22-199); remark: listed apart in the source
T4 sequence: T2 sequence

IC50, RGA 1 (human IL-11 [1]): 364 nM
IC50, RGA 2 (human IL-11 [1]): 92 nM
IC50, RGA 1 (murine IL-11 [2]): 60 nM
IC50, RGA 2 (murine IL-11 [2]): 37 nM
B1: TPP-31295 (antibody, IgG4, V domains shown)
VH: EVQLLESGGGLVQPGGSLRLSCAASGFTFSHYDMNWLRQAPGKGLEWVGVISYDGSNKYYADFVKGRFTISRDNSKNTLYLQMNSLRAEDTAVYYCARTPGSHFDYWGQGTLVTVSS
VL: QSVLTQPPSASGTPGQRVTISCSGSSSNIGNNAVNWYQQLPGTAPKLLIYYDDLLPSGVPDRFSGSKSGTSASLAISGLRSEDEADYYCSAWDDSLNGVVFGGGTKLTVL

IC50, RGA 1 (human IL-11 [1]): > 500 nM
IC50, RGA 2 (human IL-11 [1]): 34 nM
IC50, RGA 1 (murine IL-11 [2]): 76 nM
IC50, RGA 2 (murine IL-11 [2]): 127 nM
B2: TPP-31311 (antibody, IgG4, V domains shown)
VH: B1 VH with G55S, Y59F
VL: B1 VL with G98A

IC50, RGA 1 (human IL-11 [1]): 111 nM and 93 nM
IC50, RGA 2 (human IL-11 [1]): 12 nM
IC50, RGA 1 (murine IL-11 [2]): 204 nM and 231 nM
IC50, RGA 2 (murine IL-11 [2]): 21 nM
B3: TPP-18087 (antibody, mouse IgG1, V domains shown)
VH: B1 VH with Y59F
VL: QSVLTQPPSASGTPGQRVTISCSGSSSNIGNNAVNWYQQLPGTAPKLLIYYDDLLPSGVPDRFSGSKSGTSASLAISGLRSEDEADYYCSAWDDSLNGVVFGGGTKLTVLG

IC50, RGA 1 (human IL-11 [1]): 261 nM
IC50, RGA 2 (human IL-11 [1]): 122 nM
IC50, RGA 1 (murine IL-11 [2]): 108 nM
IC50, RGA 2 (murine IL-11 [2]): 68 nM
B4: TPP-31309 (antibody, IgG4, V domains shown)
VH: B1 VH with G55S, Y59F
VL: B1 VL with N97Q

IC50, RGA 1 (human IL-11 [1]): > 500 nM
IC50, RGA 2 (human IL-11 [1]): > 500 nM
IC50, RGA 1 (murine IL-11 [2]): 196 nM
IC50, RGA 2 (murine IL-11 [2]): > 500 nM
B5: TPP-31279 (antibody, IgG4, V domains shown)
VH: B1 VH with Y59F
VL: B1 VL with N35Y

IC50, RGA 1 (human IL-11 [1]): > 500 nM
IC50, RGA 2 (human IL-11 [1]): 126 nM
IC50, RGA 1 (murine IL-11 [2]): 45 nM
IC50, RGA 2 (murine IL-11 [2]): 37 nM
B6: TPP-31307 (antibody, IgG4, V domains shown)
VH: B1 VH with G55A, Y59F
VL: B1 VL with G98A

IC50, RGA 1 (human IL-11 [1]): 238 nM
IC50, RGA 2 (human IL-11 [1]): 114 nM
IC50, RGA 1 (murine IL-11 [2]): 44 nM
IC50, RGA 2 (murine IL-11 [2]): 14 nM
B7: TPP-31299 (antibody, IgG4, V domains shown)
VH: B1 VH with Y59F
VL: B1 VL with G98A

IC50, RGA 1 (human IL-11 [1]): > 500 nM
IC50, RGA 2 (human IL-11 [1]): > 500 nM
IC50, RGA 1 (murine IL-11 [2]): 63 nM
IC50, RGA 2 (murine IL-11 [2]): 170 nM
B8: TPP-31308 (antibody, IgG4, V domains shown)
VH: B1 VH with G55S, Y59F
VL: B1 VL

IC50, RGA 1 (human IL-11 [1]): 14.5 nM
IC50, RGA 2 (human IL-11 [1]): 7.13 nM
IC50, RGA 1 (murine IL-11 [2]): 3.49 nM
IC50, RGA 2 (murine IL-11 [2]): 1.17 nM
B9: TPP-31302 (antibody, IgG4, V domains shown)
VH: B1 VH with D54E, Y59F
VL: B1 VL with N97S

IC50, RGA 1 (human IL-11 [1]): > 500 nM
IC50, RGA 2 (human IL-11 [1]): > 500 nM
IC50, RGA 1 (murine IL-11 [2]): 144 nM
IC50, RGA 2 (murine IL-11 [2]): 75 nM
B10: TPP-31310 (antibody, IgG4, V domains shown)
VH: B1 VH with G55S, Y59F
VL: B1 VL with N97S

IC50, RGA 1 (human IL-11 [1]): 104 nM
IC50, RGA 2 (human IL-11 [1]): 35 nM
IC50, RGA 1 (murine IL-11 [2]): 42 nM
IC50, RGA 2 (murine IL-11 [2]): 21 nM
B11: TPP-31304 (antibody, IgG4, V domains shown)
VH: B1 VH with G55A, Y59F
VL: B1 VL

IC50, RGA 1 (human IL-11 [1]): 126 nM
IC50, RGA 2 (human IL-11 [1]): 23 nM
IC50, RGA 1 (murine IL-11 [2]): 57 nM
IC50, RGA 2 (murine IL-11 [2]): 60 nM
B12: TPP-31306 (antibody, IgG4, V domains shown)
VH: B1 VH with G55A, Y59F
VL: B1 VL with N97S

IC50, RGA 1 (human IL-11 [1]): > 500 nM
IC50, RGA 2 (human IL-11 [1]): 200 nM
IC50, RGA 1 (murine IL-11 [2]): 247 nM
IC50, RGA 2 (murine IL-11 [2]): 118 nM
B13: TPP-31283 (antibody, IgG4, V domains shown)
VH: B1 VH with Y59F
VL: B1 VL with L54Q

IC50, RGA 1 (human IL-11 [1]): 182 nM
IC50, RGA 2 (human IL-11 [1]): 47 nM
IC50, RGA 1 (murine IL-11 [2]): 30 nM
IC50, RGA 2 (murine IL-11 [2]): 29 nM
B14: TPP-31305 (antibody, IgG4, V domains shown)
VH: B1 VH with G55A, Y59F
VL: B1 VL with N97Q

IC50, RGA 1 (human IL-11 [1]): 9.08 nM
IC50, RGA 2 (human IL-11 [1]): 11 nM
IC50, RGA 1 (murine IL-11 [2]): 4.38 nM
IC50, RGA 2 (murine IL-11 [2]): 2.49 nM
B15: TPP-31303 (antibody, IgG4, V domains shown)
VH: B1 VH with D54E, Y59F
VL: B1 VL with G98A

IC50, RGA 1 (human IL-11 [1]): > 500 nM
IC50, RGA 1 (murine IL-11 [2]): > 500 nM
B16: TPP-31290 (antibody, IgG4, V domains shown)
VH: B1 VH with H31S, Y59F
VL: B1 VL

IC50, RGA 1 (human IL-11 [1]): 181 nM
IC50, RGA 2 (human IL-11 [1]): 22 nM
IC50, RGA 1 (murine IL-11 [2]): 37 nM
IC50, RGA 2 (murine IL-11 [2]): 7.93 nM
B17: TPP-31297 (antibody, IgG4, V domains shown)
VH: B1 VH with Y59F
VL: B1 VL with N97Q

IC50, RGA 1 (human IL-11 [1]): 18.9 nM
IC50, RGA 2 (human IL-11 [1]): 9.71 nM
IC50, RGA 1 (murine IL-11 [2]): 4.43 nM
IC50, RGA 2 (murine IL-11 [2]): 1.77 nM
B18: TPP-31301 (antibody, IgG4, V domains shown)
VH: B1 VH with D54E, Y59F
VL: B1 VL with N97Q

IC50, RGA 1 (human IL-11 [1]): 135 nM
IC50, RGA 2 (human IL-11 [1]): 33 nM
IC50, RGA 1 (murine IL-11 [2]): 21 nM
IC50, RGA 2 (murine IL-11 [2]): 6.22 nM
B19: TPP-31298 (antibody, IgG4, V domains shown)
VH: B1 VH with Y59F
VL: B1 VL with N97S

IC50, RGA 1 (human IL-11 [1]): 345 nM
IC50, RGA 2 (human IL-11 [1]): 287 nM
IC50, RGA 1 (murine IL-11 [2]): 70 nM
IC50, RGA 2 (murine IL-11 [2]): 28 nM
B20: TPP-31282 (antibody, IgG4, V domains shown)
VH: B1 VH with Y59F
VL: B1 VL with D53N

IC50, RGA 1 (human IL-11 [1]): > 500 nM
IC50, RGA 1 (murine IL-11 [2]): > 500 nM
B21: TPP-31281 (antibody, IgG4, V domains shown)
VH: B1 VH with Y59F
VL: B1 VL with D52N

IC50, RGA 1 (human IL-11 [1]): > 500 nM
IC50, RGA 1 (murine IL-11 [2]): > 500 nM
B22: TPP-31280 (antibody, IgG4, V domains shown)
VH: B1 VH with Y59F
VL: B1 VL with Y51R

IC50, RGA 1 (human IL-11 [1]): 1.09 nM
IC50, RGA 2 (human IL-11 [1]): 4.75 nM
IC50, RGA 1 (murine IL-11 [2]): 3.42 nM
IC50, RGA 2 (murine IL-11 [2]): 0.81 nM
B23: TPP-31300 (antibody, IgG4, V domains shown)
VH: B1 VH with D54E, Y59F
VL: B1 VL

IC50, RGA 1 (human IL-11 [1]): > 500 nM
IC50, RGA 1 (murine IL-11 [2]): > 500 nM
B24: TPP-31291 (antibody, IgG4, V domains shown)
VH: B1 VH with D33G, Y59F
VL: B1 VL

RGA Efficacy (%) (human IL-11 [3]): 75.9%
RGA IC50 (human IL-11 [3]): 4.7 nM
RGA Efficacy (%) (murine IL-11 [4]): 95.1%
RGA IC50 (murine IL-11 [4]): 0.97 nM
B25: TPP-26290 (antibody, V domains shown)
VH: EVQLLESGGGLVQPGGSLRLSCAASGFTFSSYGMHWVRQAPGKGLEWVSVISYDGSYKYYADSVKGRFTISRDNSKNTLYLQMNSLRAEDTAVYYCAAGVPDYWGQGTLVTVSS
VL: QSVLTQPPSASGTPGQRVTISCTGSSSNIGAGMDVHWYQQLPGTAPKLLIYSNNERPSGVPDRFSGSKSGTSASLAISGLRSEDEADYYCAAWDDSLNGPVFGGGTKLTVL

RGA Efficacy (%) (human IL-11 [3]): 76.1%
RGA IC50 (human IL-11 [3]): 2.6 nM
RGA Efficacy (%) (murine IL-11 [4]): 91.8%
RGA IC50 (murine IL-11 [4]): 1.5 nM
B26: TPP-26301 (antibody, V domains shown)
VH: B25 VH
VL: B25 VL with G32D, M33Y

RGA Efficacy (%) (human IL-11 [3]): 68.6%
RGA IC50 (human IL-11 [3]): 3.8 nM
RGA Efficacy (%) (murine IL-11 [4]): 87.3%
RGA IC50 (murine IL-11 [4]): 1.2 nM
B27: TPP-26312 (antibody, V domains shown)
VH: B25 VH
VL: B25 VL with M33L
